Results as given in patent publication US20230061604A1 (HIFIBIO HK, published 2023).

T1: human OX40 protein expressed on the surface of cells (human, UniProt P43489 29-277)
T1 sequence (looked up): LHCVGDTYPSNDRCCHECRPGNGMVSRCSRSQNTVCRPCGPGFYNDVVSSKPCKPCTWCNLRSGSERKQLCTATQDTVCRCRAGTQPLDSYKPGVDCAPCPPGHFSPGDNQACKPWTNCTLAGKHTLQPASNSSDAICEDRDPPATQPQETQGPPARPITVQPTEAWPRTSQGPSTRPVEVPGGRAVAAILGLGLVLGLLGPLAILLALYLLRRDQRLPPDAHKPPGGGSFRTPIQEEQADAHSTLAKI

T2: biotinylated OX40 recombinant protein (UniProt P43489 29-216, limits assumed, biotinylated (site not stated))
T2 construct: also called Biotin-OX40
T2 sequence (looked up): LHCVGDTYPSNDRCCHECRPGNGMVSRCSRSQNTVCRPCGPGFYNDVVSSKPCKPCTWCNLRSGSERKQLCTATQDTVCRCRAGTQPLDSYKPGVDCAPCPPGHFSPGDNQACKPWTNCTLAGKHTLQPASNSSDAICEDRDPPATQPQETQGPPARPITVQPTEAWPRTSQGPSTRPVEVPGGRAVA


What was measured:
[1] = molecular target: T1, human OX40 protein expressed on the …; test: cell-based or functional assay
[2] = molecular target: T2, biotinylated OX40 recombinant protein; test: ELISA: OX40L coated, biotinylated OX40 titrated (x axis is its concentration in nM), OD 450nm

| EC50 (MFI of GFP), NF-kb GFP Jurkat reporter cells, cross-linked with anti-human IgG [1] [nM] | EC50 of IL-2 secretion, primary CD4+ T cells pre-activated with anti-CD3 and anti-CD28, cross-linked [1] [nM] | EC50 (MFI of GFP), NF-kb GFP Jurkat reporter cells, without cross-linking [1] [nM] | EC50 (read off the curve) [2] [nM] | Binder |
| --- | --- | --- | --- | --- |
| 2.9 | 0.2 | – | – | anti-OX40 antibody HFB10-1E1hG1 (antibody, human IgG1, kappa, V domains shown) VH: not shown VL: DIQMTQSPSSVSASVGDRVTITCRASQGISSWLAWYQQKPGKAPKLLIYAASSLQSGVPSRFSGSGSGTDFTLTISSLQPEDFATYYCQQANSFPLTFGGGTKLEIKR |
| – | – | 45 | ~0.5 | OX40L (trimeric OX40L recombinant protein) (ligand, UniProt P23510 51-183, looked up, Bought recombinant protein; also called OX40 ligand) QVSHRYPRIQSIKVQFTEYKKEKGFILTSQKEDEIMKVQNNSVIINCDGFYLISLKGYFSQEVNISLHYQKDEEPLFQLKKVRSVNSLMVASLTYKDKVYLNVTTDNTSLDDFHVNGGELILIHQNPGEFCVL |
